From publication PMC3324464, “The GPI Anchor Signal Sequence Dictates the Folding and Functionality of the Als5 Adhesin from Candida albicans” (PLoS ONE, 2012) come the findings set out here.

Data set [1] concerns the target T1, GST-Als5-SS (Candida albicans, UniProt Q5A8T7 20-1326, N-terminal GST tag (pGEX-6P-2) not cleaved, omitted here; expressed in E. coli, unglycosylated. The 4044 bp insert implies the full ORF, including the N-terminal secretion signal, although the figure). Put plainly: other fluorescence titration; tryptophan fluorescence of 0.02 mg/ml protein, peptide titrated in; one-site saturation model; 52 °C (secondary structure of both proteins mildly perturbed at this temperature). The following applies: both partners purified.

Data set [2] addresses T2, GST-Als5 (Candida albicans, UniProt Q5A8T7 20-1327).
T2 construct: source: E. coli BL21, purified (glutathione-agarose); not shown: GST, N-terminal, kept
T2 sequence: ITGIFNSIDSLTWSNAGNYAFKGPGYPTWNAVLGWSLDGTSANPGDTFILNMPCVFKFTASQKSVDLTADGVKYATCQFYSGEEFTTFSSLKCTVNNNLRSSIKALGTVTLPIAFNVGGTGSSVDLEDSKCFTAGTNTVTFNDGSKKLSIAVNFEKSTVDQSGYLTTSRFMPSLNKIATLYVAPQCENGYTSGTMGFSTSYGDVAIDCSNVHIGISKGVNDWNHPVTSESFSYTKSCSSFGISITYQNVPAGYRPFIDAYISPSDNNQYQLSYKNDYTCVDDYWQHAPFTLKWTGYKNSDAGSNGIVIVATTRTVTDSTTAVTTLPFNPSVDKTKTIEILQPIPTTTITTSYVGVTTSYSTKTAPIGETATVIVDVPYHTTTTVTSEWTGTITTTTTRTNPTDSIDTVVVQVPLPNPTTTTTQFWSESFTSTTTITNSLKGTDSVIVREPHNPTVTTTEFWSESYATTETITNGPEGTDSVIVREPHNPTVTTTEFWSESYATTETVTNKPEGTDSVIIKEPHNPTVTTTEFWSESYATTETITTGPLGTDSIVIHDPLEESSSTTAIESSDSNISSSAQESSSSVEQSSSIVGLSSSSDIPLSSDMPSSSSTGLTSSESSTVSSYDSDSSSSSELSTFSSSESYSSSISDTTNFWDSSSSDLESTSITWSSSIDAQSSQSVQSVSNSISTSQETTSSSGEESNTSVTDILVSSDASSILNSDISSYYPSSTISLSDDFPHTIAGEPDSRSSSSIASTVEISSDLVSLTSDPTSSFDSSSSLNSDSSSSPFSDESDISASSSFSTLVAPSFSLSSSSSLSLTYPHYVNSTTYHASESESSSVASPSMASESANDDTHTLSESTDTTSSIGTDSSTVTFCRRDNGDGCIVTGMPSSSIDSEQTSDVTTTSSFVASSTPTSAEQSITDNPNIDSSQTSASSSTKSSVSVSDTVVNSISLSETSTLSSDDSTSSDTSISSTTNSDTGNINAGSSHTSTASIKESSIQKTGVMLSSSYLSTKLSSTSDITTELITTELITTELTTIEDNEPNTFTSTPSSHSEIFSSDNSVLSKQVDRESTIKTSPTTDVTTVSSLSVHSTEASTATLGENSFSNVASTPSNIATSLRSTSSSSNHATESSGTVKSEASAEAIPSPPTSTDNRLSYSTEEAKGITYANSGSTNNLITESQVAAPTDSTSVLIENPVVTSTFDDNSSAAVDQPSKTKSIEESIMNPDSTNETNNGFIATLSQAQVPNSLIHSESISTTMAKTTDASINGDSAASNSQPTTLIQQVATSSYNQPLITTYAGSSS
Described as above. The following applies: both partners purified.

The target in data set [3] is T2, GST-Als5. Put plainly: other fluorescence titration. The following applies: both partners purified.
The target in data set [4] is T2, GST-Als5. Put plainly: other fluorescence titration; tryptophan fluorescence of 0.02 mg/ml protein, peptide titrated in; one-site saturation model; 42 °C. The following applies: both partners purified.
Data set [5] concerns the target T1, GST-Als5-SS. Put plainly: other fluorescence titration; van't Hoff plots of the association constants from the fluorescence titrations at different temperatures; ΔH° from the slope. The following applies: both partners purified.
For data set [6], the target named is T2, GST-Als5. The description is as above. The following applies: both partners purified.
Data set [7] is described as follows: Aggregation by transmission electron microscopy. The data set is classed as physicochemical. The following applies: 37 °C, 2 weeks; 0.4 µM / 0.09 mg/ml (method). Here is the method:
Transmission Electron Microscopy (TEM)
TEM studies were carried out on a JEOL 2100F. The proteins (0.09 mg/ml) were incubated at 37 °C for 2 weeks prior to the measurements. The proteins were spotted on a carbon-coated copper grid and positively stained with 2% uranyl acetate. The sample was then dried and examined by TEM using a 210 kV accelerating voltage.
Figure 5 Transmission electron microscope images showing aggregation by GST-Als5. […] The scale bar in each panel represents 100 nm. Left panel: 10,000X magnification. Right panel: 25,000X magnification.
(A) Prediction of β-aggregation potential for the GPI anchor attachment signal sequence (SS). The prediction of β-aggregation potential for the SS was done using TANGO (residues 1328–1347). Also shown is the propensity for α-helix, β-turn and β-sheet formation in the unfolded polypeptide chain as predicted by TANGO. […] (B). Transmission electron microscope images showing aggregation by SS and SS in the presence of GST-Als5. The samples, SS (40.0 µM), GST-Als5 (0.4 µM) and GST-Als5 (0.4 µM) + SS (40.0 µM) were incubated as 37 °C for two days before TEM images were recorded.

“Also recorded” adds a separate entry of the source.

AYKSLMT (source: synthetic peptide (USV Ltd.)): the Kd stood at 2 nM in data set [1], 12 nM in data set [2], 13 nM in data set [3] and 9 nM in data set [4]. Further, the dH was 18.6 kcal/mol in data set [5] and -0.803 kcal/mol in data set [6].

B1: GST-Als5-SS: GST fusion of Als5 with the GPI-anchor attachment signal sequence, expressed in E. coli (protein)
chain: ITGIFNSIDSLTWSNAGNYAFKGPGYPTWNAVLGWSLDGTSANPGDTFILNMPCVFKFTASQKSVDLTADGVKYATCQFYSGEEFTTFSSLKCTVNNNLRSSIKALGTVTLPIAFNVGGTGSSVDLEDSKCFTAGTNTVTFNDGSKKLSIAVNFEKSTVDQSGYLTTSRFMPSLNKIATLYVAPQCENGYTSGTMGFSTSYGDVAIDCSNVHIGISKGVNDWNHPVTSESFSYTKSCSSFGISITYQNVPAGYRPFIDAYISPSDNNQYQLSYKNDYTCVDDYWQHAPFTLKWTGYKNSDAGSNGIVIVATTRTVTDSTTAVTTLPFNPSVDKTKTIEILQPIPTTTITTSYVGVTTSYSTKTAPIGETATVIVDVPYHTTTTVTSEWTGTITTTTTRTNPTDSIDTVVVQVPLPNPTTTTTQFWSESFTSTTTITNSLKGTDSVIVREPHNPTVTTTEFWSESYATTETITNGPEGTDSVIVREPHNPTVTTTEFWSESYATTETVTNKPEGTDSVIIKEPHNPTVTTTEFWSESYATTETITTGPLGTDSIVIHDPLEESSSTTAIESSDSNISSSAQESSSSVEQSSSIVGLSSSSDIPLSSDMPSSSSTGLTSSESSTVSSYDSDSSSSSELSTFSSSESYSSSISDTTNFWDSSSSDLESTSITWSSSIDAQSSQSVQSVSNSISTSQETTSSSGEESNTSVTDILVSSDASSILNSDISSYYPSSTISLSDDFPHTIAGEPDSRSSSSIASTVEISSDLVSLTSDPTSSFDSSSSLNSDSSSSPFSDESDISASSSFSTLVAPSFSLSSSSSLSLTYPHYVNSTTYHASESESSSVASPSMASESANDDTHTLSESTDTTSSIGTDSSTVTFCRRDNGDGCIVTGMPSSSIDSEQTSDVTTTSSFVASSTPTSAEQSITDNPNIDSSQTSASSSTKSSVSVSDTVVNSISLSETSTLSSDDSTSSDTSISSTTNSDTGNINAGSSHTSTASIKESSIQKTGVMLSSSYLSTKLSSTSDITTELITTELITTELTTIEDNEPNTFTSTPSSHSEIFSSDNSVLSKQVDRESTIKTSPTTDVTTVSSLSVHSTEASTATLGENSFSNVASTPSNIATSLRSTSSSSNHATESSGTVKSEASAEAIPSPPTSTDNRLSYSTEEAKGITYANSGSTNNLITESQVAAPTDSTSVLIENPVVTSTFDDNSSAAVDQPSKTKSIEESIMNPDSTNETNNGFIATLSQAQVPNSLIHSESISTTMAKTTDASINGDSAASNSQPTTLIQQVATSSYNQPLITTYAGSS
modifications: left off: GST, N-terminal, kept
B1: the “aggregation (in words)” value in data set [7] is “showed very poor aggregation; also recorded: showed no propensity for aggregation”.

The term Kd denotes the concentration at which binding is half-saturated.
